From the nanobody polyreactivity screen of Harvey et al. (2022)

Test: yeast display, Sf9 membrane polyspecificity reagent, FACS + sequencing; frameworks hold sequencing errors
Method in brief: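 Nanobodies from a synthetic yeast display library (Saccharomyces cerevisiae BJ5465), induced 36–48 hours with galactose, were stained 1 hour at 4 °C with 10% biotinylated, detergent-solubilized Sf9 membrane reagent, enriched on streptavidin microbeads, then FACS-sorted. Anti-HA (expression) and streptavidin (reagent binding) fluorescence set low and high (top ~1%) gates. Polyreactivity labels come from the gate of origin. Genes were colony-PCR amplified, MiSeq 2 × 250 sequenced and filtered by CDR length.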

Row | Sequence | polyreactivity (PSR sort gate)
1 | QVQLVESWGGLVQAGGSLRLSCAASGSIFRGYAMGWYRQAPGKGRELVAAISWSGASTYYADSVKGRFTISRDNAKNTVYLKMNSLKPEDTAVYYCAAVQWTGYPFDYWGQGTQVTVSS | high polyreactivity
2 | QVQLVESWGGLVQAGGSLRLSCAASGSTFASYVMGWSRQAPGKERELVAAISRSGGSTYYADSVKGRFTISRDNAKYTVYLQMNSLKPEDTAVYYCNAPYLIYKKGRYDYWGQGTQVTVSS | high polyreactivity
3 | QVQLVESWGGLVQAGGSLRLSCAASGSTFVINAMGWYSQAPGKERELVAAITWGGGRTYYADSVKGRFTISRDNAKNTVYLQMNSLKPEDTAVYYCAAVGSGWKGDYWGQGTQVTVSS | low polyreactivity
4 | QVQLVESWGGLVQAGGSLRLSCAASGSTFVVIAMGWYRLAPGKERELVAAISTSGGTTYYADSVKGRFTISRDNAKNTVYLQMNSLKPEDTAVYYCAAGGKKRDDYWGQGTQVTVSS | high polyreactivity
5 | QVQLVESWGGLVQAGGSLRLSCAASGSTLYQYDMGWYRHAPGKEREYLAAITTYGDSTYYADSVKGRFTISRDNAKNTVYLQMNSLKPEDTAVYYCNADVFKTVFYIDRYYYWGQGTQVTVSS | low polyreactivity
6 | QVQLVESWGGLVQAGGTLRLSCAPSGYIFYFNDMGCYIQAPGKERELVAAITWSGTGTYYADSVKGRFTISRDNAKNTVYLQMNSLKPEDTAVYYCAAREWTSQDRQHNYWGQGTQVTVSS | low polyreactivity
7 | QVQLVETAGGLVQAGGSLRLSCAASGSTFYTNAMGWYRQAPGKERELVAAISGSGGSTYYADSVKGRFTISRDNAKNTVYLQMISLKPEDTAVYNCAARSRYYDTRFDYWGQGTQVTVSS | low polyreactivity
8 | QVQLVETAGGLVQAGGSLRLSCAASGSTIRYNVMGWYRQAPGKERELVAAITINGGSTNYADSVKGRFTISRDNAKNTVYLQMNSLKPEDTAVYYCAAAKSYRSGSWYEYWGQGTQVTVSS | high polyreactivity
9 | QVQLVETCGGIVQAGGSLRLSCAASGITFALYAMGWYRESPGKERELVAAISYSGGRSYYADSVKGRFTISRDHAQNTVNLQMNSLKPEDTAVYYCAAGGSGSGPYGYGYWGQGTKVTVSS | high polyreactivity
10 | QVQLVETGAGLVQAGGSLRLSCAASGILLFNAMGWNTQPPGKERELVAAINSGGSTNYADSVKGRFTISRDNAKNTVYFQMNSLIPEDTAVYFCAKDTPFTLRVWAEGGMDYWGHGTQVTVSS | low polyreactivity
11 | QVQLVETGGGLDQAGGSLRLSCAASGRIFRKYVMGWYRQAPGKERELVAVISSGASTNYADSVKGRFTISRDNAKNTVYLQMNSLKPEDTAVYYCAKYGKYTWRQGGYWGQGTQVTVSS | high polyreactivity
12 | QVQLVETGGGLFQAGGSLRLSCAASGSTFVYYAMGWYRQPPGKERELVAAISSGGNTKYADSVKGRFTISRDNAKNTFYLQMNSLKPEDTAVYYCARETQSYYDHDYWGQGTQVTLSS | low polyreactivity
13 | QVQLVETGGGLVHAGGSLRLSCAASGRIFHINAMGWYRQAPGKERELVAAISSGGRTNYADSVKGRFTISRDNAKNTVYLQMNSLKPEDTAVYYCARQYTYGPNRWYGYWGQGTQVTVSS | high polyreactivity
14 | QVQLVETGGGLVQAAGSLRLSSAASGSTFLANTMGWYRQEPGKEREFVAAITRRGGSTYYADSVKGRFTISRDNAKNTVYLQMNSLKPEDTAVYYCNADWYFQYPYDYWGQGTQVTVSS | low polyreactivity
15 | QVQLVETGGGLVQAGGSFRLSCAASGGPFDTYVMGWYRQAPGKETELVAVITRGASTYYADSVKGRFTISRDNAKNTVYLQMNSLKPEETAVYYCAASFYSPDYYRFLYSFDYWGQGTQVTVSS | low polyreactivity
16 | QVQLVETGGGLVQAGGSHRLSCAASGSIFGKNVIGRYRQAPGKERELVAAITSGASTYYADSVKGRFTISRDNAKNTVYLQINSLKPEDTAVYYCAARRWRKYYSGYNYWGQGTQVSVSS | high polyreactivity
17 | QVQLVETGGGLVQAGGSHSLSCAASVRTVSSYARGWCRQAPGTERELVARITWSGGTYYADSVKGRFTISRDNAKNTVYLQMNRLKPEDTSVYYCAKRSYYWEYYYWGQGTQVTVSS | high polyreactivity
18 | QVQLVETGGGLVQAGGSLGLSFAASGFIFSYYLMGWYRQAPGKERELVAAITTSGDSTYYADSVKGRFTISSDNAKNTVYLQINRLKPEDSAVYYCAADNYYETIWHYGYWGQGTQVTVSS | high polyreactivity
19 | QVQLVETGGGLVQAGGSLRISCAASGSTFVDYDMGWYRQAPGKERELVAGITTGGSTNYADSVKGRFTISRDNAKNTVYLQMNSLKPEDTAVYYCNADSYPNLVPDYLYYWYEYWGQGTQVTVSS | low polyreactivity
20 | QVQLVETGGGLVQAGGSLRLICAASGSTFQPYAMGWYRQAPGKEREFVATISGSAGSTYYADSVKGRFKISRDNAKNTVYLQMNSLKPEDTAVYYCNADSGWFGYDYWGQGTQVTVSS | low polyreactivity
21 | QVQLVETGGGLVQAGGSLRLICAASGSTFQYYAMGWSRQAPGKERELVAAITHSGTRTYYADSVKGRFTISRDNAKNTVYLQMYRLKPEDTSVYYCAALYTWYRYYRLDYWGQGTQVTVSS | high polyreactivity
22 | QVQLVETGGGLVQAGGSLRLSCAASAFTFASYAMGWYRQAPGKEREFVAAITRSGGSTYYADSVKGRFTISRDNAKNTVYLQMNSLKPEDTAVYYGAAQYHGGISQRLYYWGQGTQVTVSS | high polyreactivity

Row | Sequence | polyreactivity (PSR sort gate)
23 | QVQLVETGGGLVQAGGSLRLSCAASGFIFPIYAMGWYRQATGKERELVAVISGSGGSTYYADSVKGRFTISRDNAKNTVYLQMNSLKPEDTAVYYCAARGRNVAGYKGGYWGQGTQVTVSS | low polyreactivity
24 | QVQLVETGGGLVQAGGSLRLSCAASGFIFRYYAMGWYRPAPGKERELVAVISSNGARTSYADSVKGRFTISRDNAKNTVYLQMNSLKPEDTADYYCNARAWSRFPPVGHDYWGQGTQVTVSS | high polyreactivity
25 | QVQLVETGGGLVQAGGSLRLSCAASGFIFVDYAMGWYRPAPGKERELVAAITSNDDRTYYADSVKGRFTISRDNAKNTVYLQMNSLKPEDTAVYYCAAGGWGATADATFTYLYDYWGQGTQVTVSS | low polyreactivity
26 | QVQLVETGGGLVQAGGSLRLSCAASGFTFAKYAMGRYRQAPGKERELVAAISSIGGSTYYADSVKGRFTISRDNAKNSVYLQMNSLKPEDSAVYFCAAELYCGYYYWGQGTQVTVYS | high polyreactivity
27 | QVQLVETGGGLVQAGGSLRLSCAASGFTFAPYVMGWSRQAPGKERELVAAINWSGTRTYYADSVKGRFTFSRDNAKNTVYLQMNSLKPEDTAVYYCAARSVTVSGSLQPKRRYGYWGQGTQVTVSS | high polyreactivity
28 | QVQLVETGGGLVQAGGSLRLSCAASGFTFFYYDMGWYRQAPGKERELVADITTGGSTNYADSVKGRFTISRDNAKNTVYFQMNSLKTEDTAVYYCAAATTYPYGYYYWGQGTEVTVSS | high polyreactivity
29 | QVQLVETGGGLVQAGGSLRLSCAASGFTFIDYTMGWYRQAPGKERELVARITDTGSTNYEDSVKGRFTISRDT | low polyreactivity
30 | QVQLVETGGGLVQAGGSLRLSCAASGFTFSFYTMGWYRQAPGKERELVAAISRRGGSTYYADSVKGRFTISRDNAKNTVYLQMNSLKPEDTAVYYCPTDHIPSVGDDYWGQGTQVTVSS | high polyreactivity
31 | QVQLVETGGGLVQAGGSLRLSCAASGIIFGGYDRGWYRQAPGKERELVAAISWSGGSTYYAASVKGRFTISRDNAKNTVYLEMNSLKPEDTAVYYCAAAYYAPTRDYYYWGQGTQVTVSS | low polyreactivity
32 | QVQLVETGGGLVQAGGSLRLSCAASGITFFAYAMGWYRQAPGKERELVAAISTGGSTNYADSVKGRFTISRDNAKNTVYLQMNSLKPEDTAVYYCGSDRSDLAEEGYAGYDYWGQVTQVTVSS | low polyreactivity
33 | QVQLVETGGGLVQAGGSLRLSCAASGITFKNYAMGWYRQANGKERELVATINRGSRTNYADSVKGRFTISRDNAKNTVYLQMNSLKPEDTAVYYCNVDQANYRWVPWEMDYWGQGSQVTVSS | low polyreactivity
34 | QVQLVETGGGLVQAGGSLRLSCAASGLIFSYKAMGWYRQAPGKERELVGAISRGGSTYYADSVKGRFTISRDNAKNTVYLQMNSLKRVDTAVYYCAADFYGWVDYWGQGTQVTVSS | high polyreactivity
35 | QVQLVETGGGLVQAGGSLRLSCAASGLTIHPYAKGCYRQAPGKERELVAAISSRGTSTYYADSVKGRFTISRDNAKNTVYLQMNSLKPEDTAVYYCAARHGPRAEAMYYWGQGTQVTVSS | high polyreactivity
36 | QVQLVETGGGLVQAGGSLRLSCAASGLTSLGNAMGGYRQAPGKERELVAAITRTVTSTYYADSVKGRFTISRDTAKNTVYLQMNSLKPEDTAVYYCAADWWYGYSNYDYWGQGTEVTVSS | low polyreactivity
37 | QVQLVETGGGLVQAGGSLRLSCAASGPTFSRNAKGWYRQAPGKERELVATISRGGGITFYADSVKGRFTISRDNAKNTVYLQMNSLKPEDTAVYYCNADVRYVGLRRIVDYWGQGTQVTVSS | high polyreactivity
38 | QVQLVETGGGLVQAGGSLRLSCAASGRIFGHYVMGWYRPAPGTERELVAAITWRGGSTYYADSVKGRFTISRDYAKNTVYLQMNSLKPEDTAVYDCNASPSEVRRRYDYWGQGTQVTVSS | high polyreactivity
39 | QVQLVETGGGLVQAGGSLRLSCAASGRIFLGYAMGCYRQAPGKERELVAAISGRGGRTNYADSVKGRFTISRDNAKNTVYLQMNSLKPEDTAVYYCATVPYTASRYEYWGQGTQVTVSS | high polyreactivity
40 | QVQLVETGGGLVQAGGSLRLSCAASGRIFVFYTKGWYRQAPGKERELVARITGGGSTSYADSVKGRFTISRDNAKNTVYLQMNSLKPEDTAVYYCAAVTRRRYYGHIYGYWGQGTQVTVSS | high polyreactivity
41 | QVQLVETGGGLVQAGGSLRLSCAASGRIFWWYAMGWYRQAPGKERELVAAISTGSRTYYADSVKGRFTISRDNAKNTVYLQMNSLKPEDTAVYYCVADGLYSVSRSSIFEYWGQGTQVTVSS | low polyreactivity
42 | QVQLVETGGGLVQAGGSLRLSCAASGRTFSRNAMGWYRQAPGKERELVAAISQRGVSTYYADSVKGRFTISRDNAKNTVYLQMNSLKPEDTAVYYCNTRGTYRYDYWGQGTQVTVSS | low polyreactivity
43 | QVQLVETGGGLVQAGGSLRLSCAASGSIFDWYAMGWYRQAPGKEGELVAAISSGDSTYYADSVKGRFTISRDNAKNTVYLKMNSLKPEDTAVYYCAAVTKLSGIRYNYWGQGTQVTVSS | low polyreactivity
